# Reference: US20220332804A1 (CSL INNOVATION, published 2022)
# Key:
# human complement C2 = biological target: T1, human complement C2 (human, UniProt P06681 21-752); assay: SPR, mAb captured, C2 analyte
# T1 construct: Recombinant full-length human C2 with C-terminal 8x His tag, purified from Expi293F supernatant; also called human C2; huC2
# T1 sequence: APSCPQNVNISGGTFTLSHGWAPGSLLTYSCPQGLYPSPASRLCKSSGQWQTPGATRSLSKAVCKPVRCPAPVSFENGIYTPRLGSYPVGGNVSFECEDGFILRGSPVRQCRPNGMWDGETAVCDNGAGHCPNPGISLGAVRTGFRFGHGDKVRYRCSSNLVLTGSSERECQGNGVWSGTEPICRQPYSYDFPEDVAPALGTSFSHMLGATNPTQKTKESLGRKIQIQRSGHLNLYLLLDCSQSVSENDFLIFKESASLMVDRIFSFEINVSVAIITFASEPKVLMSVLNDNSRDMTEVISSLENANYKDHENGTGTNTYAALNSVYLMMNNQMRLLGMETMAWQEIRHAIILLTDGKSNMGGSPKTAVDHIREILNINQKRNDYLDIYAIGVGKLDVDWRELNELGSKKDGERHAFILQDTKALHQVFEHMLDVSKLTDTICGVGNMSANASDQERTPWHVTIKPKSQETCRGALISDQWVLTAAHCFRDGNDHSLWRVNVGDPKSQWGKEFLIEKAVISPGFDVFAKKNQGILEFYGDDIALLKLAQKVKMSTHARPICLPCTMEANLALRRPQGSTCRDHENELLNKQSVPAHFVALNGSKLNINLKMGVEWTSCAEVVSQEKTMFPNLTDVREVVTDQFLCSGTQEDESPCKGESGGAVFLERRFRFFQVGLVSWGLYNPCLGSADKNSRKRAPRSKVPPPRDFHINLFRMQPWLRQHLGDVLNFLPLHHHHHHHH
# human C2 G707A = biological target: T2, human C2 G707A (human, UniProt P06681 21-752); assay: SPR, antibody captured, C2 as analyte;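 also: biacore SPR at 37 °C, anti-C2 mAbs captured via goat anti-human IgG on CM5 chips, double-referenced sensorgrams fit to a 1:1 kinetic or steady-state model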
# T2 sequence: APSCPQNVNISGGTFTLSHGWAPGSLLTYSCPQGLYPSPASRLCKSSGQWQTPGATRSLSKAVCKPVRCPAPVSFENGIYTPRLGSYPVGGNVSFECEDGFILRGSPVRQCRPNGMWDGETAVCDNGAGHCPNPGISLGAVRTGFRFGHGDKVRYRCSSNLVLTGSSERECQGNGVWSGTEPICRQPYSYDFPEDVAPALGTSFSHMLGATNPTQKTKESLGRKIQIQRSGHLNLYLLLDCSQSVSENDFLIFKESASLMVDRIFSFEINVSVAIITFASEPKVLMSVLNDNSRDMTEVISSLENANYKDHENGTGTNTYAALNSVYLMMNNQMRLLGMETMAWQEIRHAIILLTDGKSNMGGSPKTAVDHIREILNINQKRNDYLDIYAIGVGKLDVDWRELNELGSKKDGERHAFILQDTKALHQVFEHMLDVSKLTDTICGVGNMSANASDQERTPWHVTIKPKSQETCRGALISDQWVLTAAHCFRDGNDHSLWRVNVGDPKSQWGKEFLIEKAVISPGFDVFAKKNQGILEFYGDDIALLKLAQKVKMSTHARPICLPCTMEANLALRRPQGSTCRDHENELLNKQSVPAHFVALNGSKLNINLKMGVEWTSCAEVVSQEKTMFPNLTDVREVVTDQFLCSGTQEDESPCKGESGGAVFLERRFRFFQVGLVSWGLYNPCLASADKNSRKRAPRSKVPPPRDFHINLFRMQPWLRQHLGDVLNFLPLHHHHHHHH
# human C2 R510A = biological target: T3, human C2 R510A (human, UniProt P06681 21-752); assay: SPR, antibody captured, C2 as analyte;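 also: biacore SPR at 37 °C, anti-C2 mAbs captured via goat anti-human IgG on CM5 chips, double-referenced sensorgrams fit to a 1:1 kinetic or steady-state model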
# T3 sequence: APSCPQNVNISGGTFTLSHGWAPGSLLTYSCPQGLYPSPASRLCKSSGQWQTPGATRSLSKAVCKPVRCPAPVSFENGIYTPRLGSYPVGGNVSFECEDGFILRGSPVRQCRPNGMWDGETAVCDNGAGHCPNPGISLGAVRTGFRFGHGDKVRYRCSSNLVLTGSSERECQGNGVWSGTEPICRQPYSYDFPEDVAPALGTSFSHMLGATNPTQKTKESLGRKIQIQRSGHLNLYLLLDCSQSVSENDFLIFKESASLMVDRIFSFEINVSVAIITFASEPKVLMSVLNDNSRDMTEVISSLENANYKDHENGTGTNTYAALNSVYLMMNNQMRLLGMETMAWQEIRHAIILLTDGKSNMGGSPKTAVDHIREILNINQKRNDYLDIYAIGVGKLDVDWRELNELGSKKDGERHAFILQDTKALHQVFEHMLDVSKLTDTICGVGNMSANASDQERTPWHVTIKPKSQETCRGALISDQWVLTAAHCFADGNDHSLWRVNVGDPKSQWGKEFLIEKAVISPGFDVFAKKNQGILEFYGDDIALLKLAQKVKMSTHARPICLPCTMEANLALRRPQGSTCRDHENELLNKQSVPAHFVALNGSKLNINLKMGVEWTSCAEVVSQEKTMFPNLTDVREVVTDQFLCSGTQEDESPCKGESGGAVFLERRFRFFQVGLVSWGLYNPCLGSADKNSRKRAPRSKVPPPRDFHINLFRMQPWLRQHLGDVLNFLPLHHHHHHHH
# human C2 P650A = biological target: T4, human C2 P650A (human, UniProt P06681 21-752); assay: SPR, antibody captured, C2 as analyte;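 also: biacore SPR at 37 °C, anti-C2 mAbs captured via goat anti-human IgG on CM5 chips, double-referenced sensorgrams fit to a 1:1 kinetic or steady-state model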
# T4 sequence: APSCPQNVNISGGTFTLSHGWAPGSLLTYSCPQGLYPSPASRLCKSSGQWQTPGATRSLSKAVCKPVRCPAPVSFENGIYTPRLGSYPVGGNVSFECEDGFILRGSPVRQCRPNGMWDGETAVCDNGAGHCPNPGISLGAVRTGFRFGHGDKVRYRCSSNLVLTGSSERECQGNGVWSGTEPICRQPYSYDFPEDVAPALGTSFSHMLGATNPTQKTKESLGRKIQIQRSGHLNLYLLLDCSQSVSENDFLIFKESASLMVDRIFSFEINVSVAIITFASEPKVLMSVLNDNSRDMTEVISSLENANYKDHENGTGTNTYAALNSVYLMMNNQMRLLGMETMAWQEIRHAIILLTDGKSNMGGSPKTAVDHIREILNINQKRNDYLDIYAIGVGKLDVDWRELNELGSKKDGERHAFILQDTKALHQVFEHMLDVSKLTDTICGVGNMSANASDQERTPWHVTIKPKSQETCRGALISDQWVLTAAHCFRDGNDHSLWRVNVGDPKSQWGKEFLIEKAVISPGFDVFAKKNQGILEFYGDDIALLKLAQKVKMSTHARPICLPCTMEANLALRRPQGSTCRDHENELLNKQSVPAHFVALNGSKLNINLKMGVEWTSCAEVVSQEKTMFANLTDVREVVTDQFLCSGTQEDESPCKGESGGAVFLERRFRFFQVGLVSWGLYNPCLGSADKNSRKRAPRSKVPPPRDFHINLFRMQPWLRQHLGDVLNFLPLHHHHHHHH
Binder,Kd (human complement C2),Kd (human C2 G707A),Kd (human C2 R510A),Kd (human C2 P650A)
"RF16-214 (antibody, V domains shown) VH: EVQLLESGGGLVQPGGSLRLSCAASGFTFSWYQMMWVRQAPGKGLEWVSRIYPSGGGTAYADSVKGRFTISRDNSKNTLYLQMNSLRAEDTAVYYCARDAGYGDNWGQGTLVTVSS VL: QSALTQPPSVSVSPGQTASITCSGDKLGEKYASWYQQKAGQSPVMVIYQDRKRPSGIPERFSGSNSGNTATLTISGTQAMDEADYYCQAWDTRAVVFGGGTKLTVLG",31 nM,–,–,–
"RF16-226 (antibody, human IgG4 S228P, lambda, pH-dependent anti-C2 antibody from a phage display library; also called WT) heavy: not shown light: SYELTQPPSVSVSPGQTARITCSGDALTSKYVAWYQQKSGLAPLLVIYEDTRRPSGIPAKFSGSSSGSVATLTISGAHGDDEADYYCYSTDASGHQRVFGGGTKLTVLSQPKAAPSVTLFPPSSEELQANKATLVCLISDFYPGAVTVAWKADGSPVKAGVETTKPSKQSNNKYAASSYLSLTPEQWKSHRSYSCQVTHEGSTVEKTVAPTECS",–,19.4 nM,110 nM,18.3 nM
